Columns and labels:
[1] = biological target: rPcrV protein; assay: Binding kinetics, Bio-Rad ProteOn XPR36; design: species or system Pseudomonas aeruginosa; details: antibody captured, rPcrV injected; FIG. 12G-H
Experimental: Binding kinetics of V2L2-GL and V2L2-MD were measured using a Bio-Rad ProteOn™ XPR36 instrument. Antibodies were captured on a GLC bisensor chip using anti-human IgG reagents. rPcrV protein was injected at multiple concentrations and the dissociation phase followed for 600 seconds. Data was captured and analyzed using ProteOn Manager software. […] The clone V2L2-MD had increased Kd by 2-3 folds over V2L2-GL.

[2] = tested on: P. aeruginosa (6077 exoU+; 6206) lysis of rabbit red blood cells; assay: Rabbit red blood cell (RBC) lysis inhibition assay; assay type: cell-based, Pseudomonas aeruginosa; details: strain 6077; FIG. 12D-E
Experimental: Percent inhibition of cytotoxicity analysis was analysed for the parental V2L2 mAb, mAb166 (positive control) and R347 (negative control), where the antibodies were administered to cultured broncho-epithelial cell line A549 combined with log-phase P. aeruginosa strain 6077 (exoU+) at a MOI of approximately 10. A549 lysis was assayed by measuring released lactate dehydrogenase (LDH) activity and lysis in the presence of mAbs was compared to wells without mAb to determine percent inhibition. The V2L2 mAb, mAb166 (positive control) and R347 (negative control) were evaluated for their ability to prevent lysis of RBCs, where the antibodies were mixed with log-phase P. aeruginosa 6077 (exoU^+) and washed rabbit red blood cells (RBCs) and incubated for 2 hours at 37°. Intact RBCs were pelleted and the extent of lysis determined by measuring the OD405 of the cell-free supernatant. Lysis in the presence of anti-PcrV mAbs was compared to wells without mAb to determine percent inhibition. The positive control antibody, mAb166, is a previously characterized anti-PcrV antibody (J Infect Dis. 186: 64-73 (2002), Crit Care Med. 40: 2320-2326 (2012)).

B1: V2L2-MD: optimized V2L2-GL mAb; germlined lead optimized anti-PcrV antibody (antibody, V domains shown)
VH: EMQLLESGGGLVQPGGSLRLSCAASGFTFSSYAMNWVRQAPGEGLEWVSAITISGITAYYTDSVKGRFTISRDNSKNTLYLQMNSLRAGDTAVYYCAKEEFLPGTHYYYGMDVWGQGTTVTVSS
VL: AIQMTQSPSSLSASVGDRVTITCRASQGIRNDLGWYQQKPGKAPKLVIYSASTLQSGVPSRFSGSGSGTDFTLSISSLQPDDFATYYCLQDYNYPWTFGQGTKVEIK
modifications: V2L2-MD VH; V2L2-MD and V2L2-GL VL
**Q.** What does the source list for B1?
**A.** change of Kd over V2L2-GL [1]: 2-3 folds; prevention of RBC lysis [2]: demonstrated prevention of RBC lysis

From patent US11203633B2, “Polynucleotides encoding antibodies or antigen binding fragments thereof that bind pseudomonas perv” (priority 2011, dated 2021)
